Assay results published in publication PMC9935876, “Structure of the planar cell polarity cadherins Fat4 and Dachsous1” (Nature Communications, 2023).
“And” between values parts separate entries of the source, which are not always exact repeats. Identical values can stand only once.

Experiments:
[1] = biological target: Phosphorylated Drosophila Ft(EC1-4) (Drosophila) (UniProt P33450); test: ITC; MicroCal ITC200; fly Ft(EC1-4) ~50 µM and Ds(EC1-4) ~300 µM, unmodified or phosphorylated with Fj; same conditions as for the human proteins (20 °C); fitted with one set of sites; two independent experiments
Phosphorylated Drosophila Ft(EC1-4) (Drosophila), sequence (P33450 36-5147): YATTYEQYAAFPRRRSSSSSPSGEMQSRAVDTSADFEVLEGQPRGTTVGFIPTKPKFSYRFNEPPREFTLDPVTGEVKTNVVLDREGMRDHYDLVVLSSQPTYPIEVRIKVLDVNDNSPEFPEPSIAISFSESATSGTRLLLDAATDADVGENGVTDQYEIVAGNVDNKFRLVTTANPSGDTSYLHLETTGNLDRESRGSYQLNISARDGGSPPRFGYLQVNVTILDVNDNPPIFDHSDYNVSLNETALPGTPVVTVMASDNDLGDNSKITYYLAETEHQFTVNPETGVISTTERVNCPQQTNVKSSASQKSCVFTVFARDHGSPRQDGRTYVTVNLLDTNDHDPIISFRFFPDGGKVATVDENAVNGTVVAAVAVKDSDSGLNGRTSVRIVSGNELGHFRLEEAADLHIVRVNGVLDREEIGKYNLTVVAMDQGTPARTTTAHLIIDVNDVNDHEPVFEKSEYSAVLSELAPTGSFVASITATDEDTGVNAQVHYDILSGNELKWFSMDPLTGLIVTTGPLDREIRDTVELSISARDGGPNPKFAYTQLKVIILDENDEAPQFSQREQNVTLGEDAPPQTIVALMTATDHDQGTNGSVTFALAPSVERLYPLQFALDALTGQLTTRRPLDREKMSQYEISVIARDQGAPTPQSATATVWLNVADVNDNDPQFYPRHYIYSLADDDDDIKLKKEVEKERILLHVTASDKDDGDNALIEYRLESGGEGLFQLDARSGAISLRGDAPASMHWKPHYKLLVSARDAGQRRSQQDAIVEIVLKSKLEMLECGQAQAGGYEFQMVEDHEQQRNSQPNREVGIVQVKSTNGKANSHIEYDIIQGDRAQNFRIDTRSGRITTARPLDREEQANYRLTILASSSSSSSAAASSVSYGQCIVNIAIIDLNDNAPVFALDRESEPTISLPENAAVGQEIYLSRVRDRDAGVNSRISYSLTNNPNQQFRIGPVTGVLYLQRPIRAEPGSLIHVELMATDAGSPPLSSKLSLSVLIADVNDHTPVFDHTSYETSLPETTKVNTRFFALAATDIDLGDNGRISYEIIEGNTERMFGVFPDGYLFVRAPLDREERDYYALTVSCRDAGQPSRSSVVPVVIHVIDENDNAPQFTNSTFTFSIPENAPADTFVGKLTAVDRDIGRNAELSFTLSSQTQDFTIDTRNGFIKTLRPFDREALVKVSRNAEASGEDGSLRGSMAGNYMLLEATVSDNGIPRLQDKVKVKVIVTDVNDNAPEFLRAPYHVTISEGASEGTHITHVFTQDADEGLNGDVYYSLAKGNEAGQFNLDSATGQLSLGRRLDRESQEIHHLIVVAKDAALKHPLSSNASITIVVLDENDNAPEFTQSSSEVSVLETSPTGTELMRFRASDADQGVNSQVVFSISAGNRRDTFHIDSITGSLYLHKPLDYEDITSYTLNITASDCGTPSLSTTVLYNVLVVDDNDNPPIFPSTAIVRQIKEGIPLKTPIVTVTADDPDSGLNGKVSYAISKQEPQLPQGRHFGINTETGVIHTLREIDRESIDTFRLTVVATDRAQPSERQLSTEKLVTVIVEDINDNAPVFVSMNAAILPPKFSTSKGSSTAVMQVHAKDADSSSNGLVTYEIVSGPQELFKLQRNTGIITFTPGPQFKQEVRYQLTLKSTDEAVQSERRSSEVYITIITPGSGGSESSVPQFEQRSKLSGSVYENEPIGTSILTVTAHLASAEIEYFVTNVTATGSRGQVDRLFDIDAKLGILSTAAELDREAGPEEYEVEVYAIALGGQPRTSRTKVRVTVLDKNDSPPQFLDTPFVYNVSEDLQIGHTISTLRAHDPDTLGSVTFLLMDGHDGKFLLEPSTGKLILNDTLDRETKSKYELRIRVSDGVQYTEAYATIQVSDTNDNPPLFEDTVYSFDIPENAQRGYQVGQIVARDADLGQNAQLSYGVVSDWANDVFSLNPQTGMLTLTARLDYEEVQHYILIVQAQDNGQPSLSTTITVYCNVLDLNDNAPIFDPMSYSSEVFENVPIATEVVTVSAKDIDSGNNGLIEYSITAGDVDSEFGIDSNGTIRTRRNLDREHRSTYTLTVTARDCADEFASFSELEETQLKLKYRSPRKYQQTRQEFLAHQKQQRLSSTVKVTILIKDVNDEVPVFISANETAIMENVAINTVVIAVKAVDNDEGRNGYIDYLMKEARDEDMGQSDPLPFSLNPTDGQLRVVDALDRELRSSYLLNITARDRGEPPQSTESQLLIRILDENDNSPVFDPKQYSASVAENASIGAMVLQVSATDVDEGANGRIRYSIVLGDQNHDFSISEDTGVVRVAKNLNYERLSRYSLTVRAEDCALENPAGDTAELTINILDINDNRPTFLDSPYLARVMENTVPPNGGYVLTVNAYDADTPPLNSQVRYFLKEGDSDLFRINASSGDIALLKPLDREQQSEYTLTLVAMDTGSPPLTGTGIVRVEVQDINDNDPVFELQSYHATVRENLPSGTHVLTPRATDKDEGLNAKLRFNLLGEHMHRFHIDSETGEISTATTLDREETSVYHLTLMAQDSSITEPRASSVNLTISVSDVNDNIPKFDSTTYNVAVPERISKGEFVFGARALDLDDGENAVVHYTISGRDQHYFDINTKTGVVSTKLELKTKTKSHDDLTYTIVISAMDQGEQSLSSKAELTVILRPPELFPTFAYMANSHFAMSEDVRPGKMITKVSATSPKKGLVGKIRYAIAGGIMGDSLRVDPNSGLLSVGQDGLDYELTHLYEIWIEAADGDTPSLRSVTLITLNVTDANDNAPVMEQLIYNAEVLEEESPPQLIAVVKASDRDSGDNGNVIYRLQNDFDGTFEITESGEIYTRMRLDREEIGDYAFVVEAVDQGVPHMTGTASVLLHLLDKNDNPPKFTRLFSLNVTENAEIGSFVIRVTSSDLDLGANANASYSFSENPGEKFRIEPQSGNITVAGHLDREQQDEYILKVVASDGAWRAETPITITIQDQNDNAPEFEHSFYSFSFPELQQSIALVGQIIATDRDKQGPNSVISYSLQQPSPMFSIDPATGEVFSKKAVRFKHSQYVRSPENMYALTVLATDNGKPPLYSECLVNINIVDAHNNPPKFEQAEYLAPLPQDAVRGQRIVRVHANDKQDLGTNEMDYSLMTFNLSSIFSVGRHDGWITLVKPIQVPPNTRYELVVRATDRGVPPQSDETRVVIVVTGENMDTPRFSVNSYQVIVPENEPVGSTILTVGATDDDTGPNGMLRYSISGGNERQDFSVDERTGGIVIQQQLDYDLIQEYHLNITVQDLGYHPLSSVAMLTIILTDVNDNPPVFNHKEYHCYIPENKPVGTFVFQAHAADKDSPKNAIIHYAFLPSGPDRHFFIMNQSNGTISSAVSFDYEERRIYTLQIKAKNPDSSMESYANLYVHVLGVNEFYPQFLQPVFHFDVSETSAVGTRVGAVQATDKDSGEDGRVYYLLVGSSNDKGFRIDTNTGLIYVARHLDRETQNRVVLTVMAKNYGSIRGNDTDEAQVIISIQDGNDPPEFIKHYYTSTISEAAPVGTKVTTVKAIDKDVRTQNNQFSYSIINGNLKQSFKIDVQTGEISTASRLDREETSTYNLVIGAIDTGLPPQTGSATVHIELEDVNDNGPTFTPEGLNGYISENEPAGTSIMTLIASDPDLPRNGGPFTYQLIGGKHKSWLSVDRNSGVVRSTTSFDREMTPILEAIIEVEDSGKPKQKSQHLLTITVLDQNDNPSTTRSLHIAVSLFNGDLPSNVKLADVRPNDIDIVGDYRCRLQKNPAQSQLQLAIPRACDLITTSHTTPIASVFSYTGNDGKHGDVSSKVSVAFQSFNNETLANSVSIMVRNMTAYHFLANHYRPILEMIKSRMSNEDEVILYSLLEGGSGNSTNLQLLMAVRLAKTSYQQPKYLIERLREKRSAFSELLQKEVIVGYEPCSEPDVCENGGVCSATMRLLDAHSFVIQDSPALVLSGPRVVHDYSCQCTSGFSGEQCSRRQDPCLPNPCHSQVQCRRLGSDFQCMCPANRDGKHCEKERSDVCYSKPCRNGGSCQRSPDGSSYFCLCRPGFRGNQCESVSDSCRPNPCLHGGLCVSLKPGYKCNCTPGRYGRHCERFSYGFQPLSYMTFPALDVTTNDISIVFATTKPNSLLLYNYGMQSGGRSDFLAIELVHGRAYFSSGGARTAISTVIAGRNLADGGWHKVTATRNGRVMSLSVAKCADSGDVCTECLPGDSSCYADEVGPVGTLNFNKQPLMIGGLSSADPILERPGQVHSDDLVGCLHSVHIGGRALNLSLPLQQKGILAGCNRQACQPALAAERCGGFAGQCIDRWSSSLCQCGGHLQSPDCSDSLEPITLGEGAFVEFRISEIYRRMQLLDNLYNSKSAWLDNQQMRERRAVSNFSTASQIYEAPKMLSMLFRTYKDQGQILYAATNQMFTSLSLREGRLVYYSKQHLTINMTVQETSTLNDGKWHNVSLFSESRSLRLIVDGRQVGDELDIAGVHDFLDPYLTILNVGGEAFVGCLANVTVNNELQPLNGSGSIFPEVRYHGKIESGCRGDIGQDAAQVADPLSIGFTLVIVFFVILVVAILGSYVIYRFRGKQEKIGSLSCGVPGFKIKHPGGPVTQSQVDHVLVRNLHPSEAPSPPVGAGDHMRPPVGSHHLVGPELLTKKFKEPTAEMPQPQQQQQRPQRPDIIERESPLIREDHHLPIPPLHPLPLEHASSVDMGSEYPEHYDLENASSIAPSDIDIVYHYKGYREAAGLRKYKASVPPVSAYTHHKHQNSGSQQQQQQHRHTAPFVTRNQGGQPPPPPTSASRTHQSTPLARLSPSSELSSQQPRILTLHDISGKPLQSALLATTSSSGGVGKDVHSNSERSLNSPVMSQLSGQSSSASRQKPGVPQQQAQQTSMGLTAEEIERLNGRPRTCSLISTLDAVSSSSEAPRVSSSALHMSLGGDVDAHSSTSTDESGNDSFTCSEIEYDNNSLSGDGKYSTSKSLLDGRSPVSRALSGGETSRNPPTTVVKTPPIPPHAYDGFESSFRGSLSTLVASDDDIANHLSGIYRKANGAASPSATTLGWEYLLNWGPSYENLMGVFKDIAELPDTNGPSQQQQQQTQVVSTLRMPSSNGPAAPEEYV

[2] = biological target: Drosophila Ft(EC1–4), phosphorylated (Drosophila); test: ITC; fly Ft(EC1–4) at ~50 μM and Ds(EC1–4) at ~300 μM, unmodified or phosphorylated with Fj; same conditions as for the human proteins (20 °C); one set of sites
[3] = biological target: Phosphorylated Drosophila Ft(EC1-4) (Drosophila) (UniProt P33450); test: ITC; MicroCal ITC200; fly Ft(EC1-4) ~50 µM, fly Ds(EC1-4) ~300 µM; proteins phosphorylated with Fj as needed; 20 °C; one set of sites
CDH23 EC1-EC2 = CDH23 EC1-EC2 (UniProt Q99PF4); conditions: cited from earlier work
Human Fat4(EC1-4) R152A = biological target: T1, Human Fat4(EC1-4) R152A (human, UniProt Q6V0I7 43-475, R152A); test: ITC; MicroCal ITC200; Fat4 constructs at 30 µM in the sample cell, Dchs1 constructs at 300 µM as titrants; 20 °C; one set of sites
T1 construct: human Fat4, EC1-EC4, aa43-475, with R152A in EC2; also called Fat4R152A(EC1-4); Fat4R152A
T1 sequence: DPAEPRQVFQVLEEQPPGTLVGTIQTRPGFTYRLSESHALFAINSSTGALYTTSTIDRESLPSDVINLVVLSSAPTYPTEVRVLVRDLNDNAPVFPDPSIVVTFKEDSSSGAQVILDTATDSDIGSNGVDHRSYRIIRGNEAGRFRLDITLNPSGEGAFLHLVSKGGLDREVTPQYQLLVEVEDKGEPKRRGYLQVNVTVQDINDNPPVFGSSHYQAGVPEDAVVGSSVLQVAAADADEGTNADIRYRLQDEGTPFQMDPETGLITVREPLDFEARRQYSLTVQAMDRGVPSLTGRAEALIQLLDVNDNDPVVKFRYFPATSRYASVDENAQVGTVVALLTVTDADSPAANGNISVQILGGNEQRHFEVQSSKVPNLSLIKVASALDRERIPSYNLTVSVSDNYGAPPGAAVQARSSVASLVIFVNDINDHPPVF

With “Drosophila Ds(EC1-4), unmodified (from UniProt Q24292 74-3556) (domain or fragment)” the Kd [1] was 4.1 µM and 5.05 µM.

In the case of “Drosophila Ds(EC1–4), phosphorylated (domain or fragment)”, the Kd [2] is reported as 12.5 µM.

Work on “Drosophila Ds(EC1–4), unmodified (domain or fragment)” yielded a Kd [2] of 4.58 µM.

For “Drosophila Ds(EC1-4) (from UniProt Q24292 74-3556) (domain or fragment)”, the stoichiometry N [3] was 0.777 sites.

In the case of “Phosphorylated Drosophila Ds(EC1-4) (from UniProt Q24292 74-3556) (domain or fragment)”, the stoichiometry N [3] is reported as 0.751 sites and the Kd [1] is reported as 13.6 µM and 11.4 µM.

In the case of PCDH15 EC1-EC2 (from UniProt Q99PJ1), the Kd (CDH23 EC1-EC2) is listed as 2.9 µM.

B1: human Dchs1(EC1–4) (domain or fragment)
chain: DPQAGSLDLQIDEEQPAGTLIGDISAGLPAGTAAPLMYFISAQEGSGVGTDLAIDEHSGVVRTARVLDREQRDRYRFTAVTPDGATVEVTVRVADINDHAPAFPQARAALQVPEHTAFGTRYPLEPARDADAGRLGTQGYALSGDGAGETFRLETRPGPDGTPVPELVVTGELDRENRSHYMLQLEAYDGGSPPRRAQALLDVTLLDINDHAPAFNQSRYHAVVSESLAPGSPVLQVFASDADAGVNGAVTYEINRRQSEGDGPFSIDAHTGLLQLERPLDFEQRRVHELVVQARDGGAHPELGSAFVTVHVRDANDNQPSMTVIFLSADGSPQVSEAAPPGQLVARISVSDPDDGDFAHVNVSLEGGEGHFALSTQDSVIYLVCVARRLDREERDAYNLRVTATDSGSPPLRAEAAFVLHVTDVNDNAPAF
B1 showed a fold decrease in binding affinity against wild type (Human Fat4(EC1-4) R152A) of 9 fold.
